Reference: article PMC10676354

Columns and labels:
[1] = fluorometric AGE assay, HEK293 mitochondria, vehicle (PBS); settings: glycan lost; control: DJ1 WT
[2] = fluorometric AGE assay, HEK293 mitochondria, MGO 30 min; settings: glycan lost; control: DJ1 WT

B1: DJ1: T19A (protein)
parent chain: MASKRALVILAKGAEEMETVIPVDVMRRAGIKVTVAGLAGKDPVQCSRDVVICPDASLEDAKKEGPYDVVVLPGGNLGAQNLSESAAVKEILKEQENRKGLIAAICAGPTALLAHEIGFGSKVTTHPLAKDKMMNGGHYTYSENRVEKDGLILTSRGPGTSFEFALAIVEALNGKEVAAQVKAPLVLKD
In the case of B1, the “other: mitochondrial protein glycation” value [1] is reported as “no change” and the “other: mitochondrial protein glycation” value [2] is reported as “increases”.
